Laboratory results reported in patent publication US12344663B2, “Anti-C3 antibodies and antigen-binding fragments thereof and their uses for treating eye or ocular diseases” (CDR-Life AG, priority 2021, dated 2025).

B1: Clone I: humanized anti-C3 scFv, VH SEQ ID NO: 20, VL SEQ ID NO: 21; scFv SEQ ID NO: 26 or 27 (antibody, V domains shown)
VH: QVQLVESGGGSVQPGRSLRLSCAASGFTFSNYAMNWVRQAPGKGLEWVAVISYDGSNKYYADSVKGRFTISRDNSKNTLYLQMNSLRAEDTASYYCARAVGYHHARLDPWGCGTSVTVSS
VL: QLVLTQSPSASASLGASVKLTCTLSSAHKTYTIDWYQQQPEKCPRYLMQLKSDGSYTKGSGIPDRFSGSSSGAERYLTISSLQSEDEADYYCGTEGVGGYVFGGGTKLTVLG
modifications: VH; VL
B2: Clone II: humanized anti-C3 scFv, VH SEQ ID NO: 22, VL SEQ ID NO: 23; scFv SEQ ID NO: 28 or 29 (antibody, V domains shown)
VH: QVQLVESGGGSVQPGRSLRLSCAASGFTFSNYAMNWVRQAPGKGLEWVAIINVGGGTNYADSVKGRFTISRDNSKNTLYLQMNSLRAEDTASYYCARAVGYHHARLDPWGCGTSVTVSS
VL: B1 VL
modifications: VH; VL

Experiments:
Alternative Pathway (AP) = experiment: Hemolytic assay, rabbit erythrocytes in human serum; format: cell-based; conditions: MgEGTA, read-out: IC50 (nM) Alternative Pathway Hemolysis
From the text: The Alternative Pathway (AP) in human serum samples is spontaneously activated by rabbit erythrocytes. Since AP activation requires higher concentrations of serum, the Classical Pathway needs to be blocked with MgEGTA to chelate Ca2+ ions (AP only requires Mg2+ ions). AP activation results in C3 activation and subsequent formation of the Membrane Attack Complex (MAC). The MAC assembles on the membrane of rabbit erythrocytes leading to cell lysis. The level of hemoglobin released from lysed erythrocytes is measured at OD 414 nm and is proportional to the complement activity present in the serum sample.

Alternative Pathway = experiment: WEISLAB Complement system Screen, alternative pathway MAC (C5b-C9) formation; format: biochemical, human; conditions: human serum; read-out: IC50 (nM) Alternative Pathway MAC deposition
Experimental: To identify antibodies that block all 3 complement pathways, antibodies are screened using an enzyme immunoassay for the qualitative determination of functional classical, lectin and alternative complement pathways in human serum using the WEISLAB® Complement system Screen (Svar Life Science AB, Malmö, Sweden).
To monitor inhibition of the complement system in human serum, the scFv of the invention or the comparator molecules are tested using an enzyme immunoassay for the qualitative determination of functional classical, lectin and alternative complement pathways in human serum using the WEISLAB® Complement system Screen (Svar Life Science AB, Malmö, Sweden), following the supplier's instructions. The amount of C5b-C9 neoantigen generated is proportional to the functional activity of complement pathways. The scFv of the invention and the comparator molecules are tested in a concentration response curve and the IC50 for the inhibition is calculated using the GraphPadPrism software and a non-linear, 4 parameters curve regression.

pre-existing ADA = experiment: Bridging ELISA screen for pre-existing ADA in sera of healthy human donors; conditions: 10% serum of healthy human donors
From the text: The inventors screen sera of healthy human donors for pre-existing ADA against Clone I using a bridging ELISA. Pre-existing ADAs present in serum from healthy human donors are bound by immobilized anti-C3 scFv. In a next step, ADAs are bound by the same anti-C3 scFv labeled with biotin and are detected by HRP-conjugated Streptavidin.
The scFv is biotin-labeled using the “Biotin Conjugation Kit (Fast, Type A)-Lightning-Link”-Kit (Expedeon/Abcam) following the suppliers' instructions. The unlabeled scFv is diluted to 0.5 μg/ml in PBS, 50 μl per well transferred to a 96 well plate and incubated overnight at 4° C. On the next day, the 96 well plate is washed with wash buffer (3×320 μl, 0.05% Tween 20 in PBS pH 7.4) and non-specific binding sites are blocked with 300 μl/well blocking buffer (SuperBlock Blocking Buffer; ThermoFisher scientific) for 30 min at room temperature. The wells are then washed with wash buffer (3×320 μl/well)
Human serum from healthy volunteers is diluted to 10% in PBS, 50 μl/well are added to the 96 well plate and the plate incubated for 1 hr at room temperature. […]
The plate is washed (3×320 μl/well wash buffer), 50 μl/well TMB substrate (Invitrogen) is added and incubated for 5 min at room temperature. […] The absorption is measured at 450 nm. […]

[1] = Storage stability at 150 mg/ml, oligomerization by SE-HPLC; format: physicochemical; conditions: decrease in monomeric content versus start
Experimental: Clone I, clone II and clone III are tested for storage stability. Samples are concentrated to 150 mg/ml (Vivaspin20 centrifugal device, 5 kDa MWCO at 3800×g) and stored at 25° C. and 40° C. for up to 4 weeks. Samples are analyzed for oligomerization (SE-HPLC) and chemical degradation (IEX-HPLC). The starting monomeric purity as determined by SE-HPLC was 99.96% for each clone. The starting charge purity, as determined by IEX-HPLC was 98.07%, 97.16% and 96.76%, respectively for clone I, II and III.

Classical Pathway (CP) = experiment: Hemolytic assay, antibody-sensitized sheep erythrocytes in human serum; format: cell-based; conditions: 1% human serum, read-out: IC50 (nM) Classical Pathway Hemolysis
Experimental: Anti-C3 antibody fragments are evaluated for their ability to inhibit hemolysis of antibody-sensitized sheep erythrocytes mediated by Classical Pathway (CP) or Alternative Pathway (AP) activation in human serum. For this, sheep erythrocytes are coated with hemolysin (rabbit anti-sheep antibodies) on the surface to activate the complement system in human serum resulting in C3 activation and subsequent formation of the Membrane Attack Complex (MAC). The MAC assembles on the membrane of sheep erythrocytes leading to cell lysis. The level of hemoglobin released from lysed erythrocytes is measured at OD 414 nm and is proportional to the complement activity present in the serum sample. For determining the ability of anti-C3 molecules to inhibit CP activity, human serum was diluted in GVB++ buffer (Complement technology) for optimal activation of the Classical Pathway (requires calcium and magnesium ions). Serial dilutions of anti-C3 test samples are prepared from this solution with a final concentration of 1% human serum for each datapoint (prior to addition to erythrocytes). The samples are incubated with antibody-sensitized sheep erythrocytes for 1 hour at 37° C. and released hemoglobin is measured in the supernatant after a centrifugation step.

Row | Molecule | IC50 (Alternative Pathway (AP)) [nM] | IC50 (Alternative Pathway) [nM] | Serum samples with pre-existing ADA (pre-existing ADA) | Storage stability, SEC 4 weeks at 25° C. [D %] [1] [D %] | Storage stability, SEC 4 weeks at 40° C. [D %] [1] [D %] | IC50 (Classical Pathway (CP)) [nM]
1 | B1 | 705 | 344 | 9 out of 50 | 0.06 | 0.37 | 74
2 | B2 | 668 | 360 | – | 0.11 | 1.59 | 69
